According to US20250197525A1 (MINOTAUR THERAPEUTICS, published 2025):

Target: T1, IL2/15Rβ and γc receptor subunits (UniProt P31785 23-369, limits assumed)
T1 sequence 1: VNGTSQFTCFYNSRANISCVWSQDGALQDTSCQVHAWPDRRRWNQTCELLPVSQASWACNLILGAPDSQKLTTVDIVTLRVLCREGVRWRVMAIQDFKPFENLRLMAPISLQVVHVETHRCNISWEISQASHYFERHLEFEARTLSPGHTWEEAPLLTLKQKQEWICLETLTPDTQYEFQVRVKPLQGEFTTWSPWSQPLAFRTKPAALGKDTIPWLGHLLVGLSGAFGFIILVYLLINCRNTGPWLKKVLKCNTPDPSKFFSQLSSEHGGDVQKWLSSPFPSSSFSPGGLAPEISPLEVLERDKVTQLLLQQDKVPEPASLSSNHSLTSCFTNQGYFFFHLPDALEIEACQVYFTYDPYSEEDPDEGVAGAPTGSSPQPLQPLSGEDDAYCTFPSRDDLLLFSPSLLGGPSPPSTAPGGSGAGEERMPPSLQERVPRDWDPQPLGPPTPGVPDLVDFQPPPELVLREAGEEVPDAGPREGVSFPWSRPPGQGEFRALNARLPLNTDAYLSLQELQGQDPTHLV
T1 sequence 2: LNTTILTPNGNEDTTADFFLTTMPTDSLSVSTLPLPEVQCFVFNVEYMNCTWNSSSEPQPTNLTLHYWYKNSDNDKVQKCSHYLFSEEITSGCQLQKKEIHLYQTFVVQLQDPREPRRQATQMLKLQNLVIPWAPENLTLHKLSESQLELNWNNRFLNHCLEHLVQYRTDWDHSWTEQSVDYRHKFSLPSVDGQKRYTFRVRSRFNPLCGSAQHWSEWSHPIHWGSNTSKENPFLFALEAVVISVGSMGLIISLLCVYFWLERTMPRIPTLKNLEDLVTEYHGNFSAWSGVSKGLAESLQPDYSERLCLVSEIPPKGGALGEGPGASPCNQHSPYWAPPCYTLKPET
Assay: cell-based or functional assay

B1: B15 Variant 1 (chimeric BLV1H12-IL-15 fusion antibody) (antibody, human IgG1, lambda, L234A L235A)
heavy: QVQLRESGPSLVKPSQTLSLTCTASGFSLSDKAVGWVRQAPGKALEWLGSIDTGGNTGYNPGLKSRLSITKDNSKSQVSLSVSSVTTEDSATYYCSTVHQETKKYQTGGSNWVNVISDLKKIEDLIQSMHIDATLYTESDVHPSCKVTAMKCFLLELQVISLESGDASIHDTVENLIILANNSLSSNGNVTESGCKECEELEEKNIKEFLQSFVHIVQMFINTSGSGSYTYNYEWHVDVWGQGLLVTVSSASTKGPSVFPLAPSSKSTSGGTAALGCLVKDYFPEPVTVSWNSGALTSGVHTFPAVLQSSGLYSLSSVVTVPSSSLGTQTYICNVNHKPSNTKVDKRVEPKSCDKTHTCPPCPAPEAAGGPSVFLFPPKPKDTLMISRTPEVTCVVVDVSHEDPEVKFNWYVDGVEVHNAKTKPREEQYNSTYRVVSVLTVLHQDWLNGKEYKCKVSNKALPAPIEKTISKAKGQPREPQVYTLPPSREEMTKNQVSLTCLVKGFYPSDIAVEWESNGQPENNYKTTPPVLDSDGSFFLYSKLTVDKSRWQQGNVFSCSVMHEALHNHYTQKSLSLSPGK
light: QAVLNQPSSVSGSLGQKVTISCSGSSSNIGNNYVSWYQQLPGTAPKLLIYGDTKRPSGIPDRFSGSKSGTSATLGITGLQTGDEADYYCASAEDSSSNAVFGSGTTLTVLGQPKAAPSVTLFPPSSEELQANKATLVCLISDFYPGAVTVAWKADSSPVKAGVETTTPSKQSNNKYAASSYLSLTPEQWKSHRSYSCQVTHEGSTVEKTVAPTECS
EC50 (nM), STAT5 inducible SEAP reporter in HEK-Blue IL2 reporter cells: 0.032 nM

B2: B15 Variant 3 (chimeric BLV1H12-IL-15 fusion antibody) (antibody, human IgG1, lambda, L234A L235A)
heavy: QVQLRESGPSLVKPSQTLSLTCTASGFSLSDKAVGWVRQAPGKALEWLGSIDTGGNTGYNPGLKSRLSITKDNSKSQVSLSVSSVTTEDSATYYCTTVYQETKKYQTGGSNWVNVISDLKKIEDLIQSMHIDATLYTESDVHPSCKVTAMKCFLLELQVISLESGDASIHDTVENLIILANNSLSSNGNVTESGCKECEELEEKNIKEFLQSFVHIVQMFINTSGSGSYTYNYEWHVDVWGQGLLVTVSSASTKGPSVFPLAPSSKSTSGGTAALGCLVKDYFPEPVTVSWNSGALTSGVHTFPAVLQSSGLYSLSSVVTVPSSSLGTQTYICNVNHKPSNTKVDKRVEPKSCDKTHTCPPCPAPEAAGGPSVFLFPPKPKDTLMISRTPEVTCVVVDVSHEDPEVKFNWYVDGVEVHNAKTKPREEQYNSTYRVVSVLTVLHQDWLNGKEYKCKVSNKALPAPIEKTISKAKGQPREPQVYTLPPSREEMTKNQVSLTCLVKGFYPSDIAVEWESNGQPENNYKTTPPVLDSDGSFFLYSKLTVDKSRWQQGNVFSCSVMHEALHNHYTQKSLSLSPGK
light: QAVLNQPSSVSGSLGQKVTISCSGSSSNIGNNYVSWYQQLPGTAPKLLIYGDTKRPSGIPDRFSGSKSGTSATLGITGLQTGDEADYYCASAEDSSSNAVFGSGTTLTVLGQPKAAPSVTLFPPSSEELQANKATLVCLISDFYPGAVTVAWKADSSPVKAGVETTTPSKQSNNKYAASSYLSLTPEQWKSHRSYSCQVTHEGSTVEKTVAPTECS
EC50 (nM), STAT5 inducible SEAP reporter in HEK-Blue IL2 reporter cells: 0.026 nM
